How the values were obtained:
GRFT D30A (red algae) = GRFT D30A (red algae) (UniProt P84801); experiment: AUC
[1] = target: recombinant gp120 from HIV-1(ADA) strain (HIV-1 (ADA)); experiment: ELISA
[2] = target: recombinant gp120 from HIV-1(ADA) strain (HIV-1 (ADA)); experiment: SPR
[3] = target: recombinant gp120 from HIV-1(IIIB) strain, glycosylated (HIV-1 (IIIB)) (UniProt P04578); experiment: SPR
[4] = target: recombinant gp41 protein from HIV-1(HxB2) (HIV-1 (HxB2)) (UniProt P04578); experiment: SPR
GRFT D112A (red algae) = GRFT D112A (red algae) (UniProt P84801); experiment: AUC
[5] = target: wild-type griffithsin (GRFT) (red algae) (UniProt P84801); experiment: AUC
[6] = target: monomeric gp120 derived from HIV-1/JR-FL (HIV-1 (JR-FL)); experiment: SPR
[7] = target: trimeric gp140 derived from HIV-1/JR-FL (HIV-1 (JR-FL)); experiment: SPR

Substance | stoichiometry N (GRFT D30A (red algae)) | fold reduction in binding against wild-type GRFT [1] [fold] | Kd [2] [nM] | Kd [3] [nM] | Kd [4] [nM] | stoichiometry N (GRFT D112A (red algae)) | stoichiometry N [5] | Kd [6] [nM] | Kd [7] [nM]
GRFT D30A (from UniProt P84801 1-121) (natural protein) | 2 | 10 | 0.123 | 0.156 | – | – | – | – | –
GRFT D70A (from UniProt P84801 1-121) (natural protein) | – | 10 | 0.194 | 0.245 | 0.165 | – | – | – | –
GRFT D112A (from UniProt P84801 1-121) (natural protein) | – | 10 | 0.122 | 0.142 | 0.131 | 2 | – | – | –
wild-type griffithsin (GRFT) (from UniProt P84801 1-121) (natural protein) | – | – | 0.0732 | 0.0727 | 0.0449 | – | 2 | 0.111 | 0.152

From paper PMC3474606
